Experimental data from article PMC8365315 (EBioMedicine, 2021).

Biological target: exportin 4 (XPO4) (UniProt Q9C0E2 1-1151)
Experiment: SPR

Sequence of exportin 4 (XPO4) (Q9C0E2 whole entry): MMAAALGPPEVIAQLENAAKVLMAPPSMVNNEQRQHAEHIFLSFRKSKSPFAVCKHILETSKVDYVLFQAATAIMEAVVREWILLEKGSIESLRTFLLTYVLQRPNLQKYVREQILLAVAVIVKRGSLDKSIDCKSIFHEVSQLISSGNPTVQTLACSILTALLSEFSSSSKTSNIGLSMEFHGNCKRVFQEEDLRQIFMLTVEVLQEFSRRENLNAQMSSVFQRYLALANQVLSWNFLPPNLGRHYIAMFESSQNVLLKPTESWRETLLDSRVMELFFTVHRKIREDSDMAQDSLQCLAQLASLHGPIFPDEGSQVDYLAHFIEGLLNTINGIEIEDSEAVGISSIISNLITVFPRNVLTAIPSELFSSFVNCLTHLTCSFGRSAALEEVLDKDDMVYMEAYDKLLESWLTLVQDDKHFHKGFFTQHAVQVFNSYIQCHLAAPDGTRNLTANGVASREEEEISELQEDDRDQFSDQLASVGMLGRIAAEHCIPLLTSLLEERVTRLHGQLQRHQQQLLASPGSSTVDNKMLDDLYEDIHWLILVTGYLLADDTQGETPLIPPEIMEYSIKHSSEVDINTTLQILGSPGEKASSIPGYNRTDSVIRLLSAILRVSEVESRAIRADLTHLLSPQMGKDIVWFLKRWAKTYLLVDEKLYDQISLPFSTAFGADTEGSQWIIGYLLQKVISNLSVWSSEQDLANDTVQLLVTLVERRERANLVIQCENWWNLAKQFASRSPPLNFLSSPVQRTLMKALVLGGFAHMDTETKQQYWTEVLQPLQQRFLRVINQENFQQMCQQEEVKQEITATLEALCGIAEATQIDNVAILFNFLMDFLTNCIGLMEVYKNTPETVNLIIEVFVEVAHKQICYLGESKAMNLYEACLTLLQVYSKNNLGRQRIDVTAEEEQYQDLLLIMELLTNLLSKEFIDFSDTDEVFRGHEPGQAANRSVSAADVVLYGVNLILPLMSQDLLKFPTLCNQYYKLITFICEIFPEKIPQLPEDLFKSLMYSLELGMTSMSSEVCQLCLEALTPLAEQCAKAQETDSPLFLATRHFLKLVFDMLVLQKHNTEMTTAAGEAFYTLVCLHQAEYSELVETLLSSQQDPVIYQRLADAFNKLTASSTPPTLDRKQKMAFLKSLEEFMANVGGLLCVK

Kd: 4.88 nM
B1: SMAD3 (natural protein, UniProt P84022 1-425, looked up)
chain: MSSILPFTPPIVKRLLGWKKGEQNGQEEKWCEKAVKSLVKKLKKTGQLDELEKAITTQNVNTKCITIPRSLDGRLQVSHRKGLPHVIYCRLWRWPDLHSHHELRAMELCEFAFNMKKDEVCVNPYHYQRVETPVLPPVLVPRHTEIPAEFPPLDDYSHSIPENTNFPAGIEPQSNIPETPPPGYLSEDGETSDHQMNHSMDAGSPNLSPNPMSPAHNNLDLQPVTYCEPAFWCSISYYELNQRVGETFHASQPSMTVDGFTDPSNSERFCLGLLSNVNRNAAVELTRRHIGRGVRLYYIGGEVFAECLSDSAIFVQSPNCNQRYGWHPATVCKIPPGCNLKIFNNQEFAALLAQSVNQGFEAVYQLTRMCTIRMSFVKGWGAEYRRQTVTSTPCWIELHLNGPLQWLDKVLTQMGSPSIRCSSVS
